Assay results published in the supplement of paper PMC11780869.

Tested on: Bacillus subtilis
Test: cleaved RNA product abundance (RNA/gDNA barcode ratio) relative to median wild-type variant (ratio to wild type); higher = more accumulation of the downstream cleavage product
In short: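 In LB at 37°C, B. subtilis cultures went from OD600 0.0003 to 0.3. Their chromosomes held barcoded reporter mRNAs, truncated aprE or tetM, with RNase Y cleavage-site windows mutagenized via oligos at a 9% error rate. Cleaved RNA, chosen by gel, was reverse transcribed and barcode-sequenced alongside genomic DNA barcodes with UMI collapsing, giving a per-construct RNA:gDNA ratio scaled to the median construct with the unmutated site. This scaled ratio is termed cleaved product abundance.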

[1] = experiment (reporter, strain, medium): exp 4a: truncated aprE reporter, strain BJT201 with 2% xylose (RNase J1 expressed), cleavage site: cggR-gapA (positions -7 to +36 mutated)
[2] = experiment (reporter, strain, medium): exp 2b: truncated aprE reporter, strain BJT200, cleavage site: cggR-gapA (positions -7 to +36 mutated)
[3] = experiment (reporter, strain, medium): exp 8a: truncated aprE reporter, strain BJT201 with 2% xylose (RNase J1 expressed), cleavage site: glnRA (positions -5 to +31 mutated)

Sequence	cleaved RNA product abundance [1]	cleaved RNA product abundance [2]	also measured
ACAGACGAAGGAGCCGCAAAGATGCTATTAAGGGATGAATAATCCCTCAATATAAATATCTCTCACTTATTTAAA	0.848		
ACAGACGAAGGAGCCGCAAACAAGTTATTAAGGGATGAATAATGCCTCAATATAAATATCTCTCACTTATTTAAA	0.0993		
ACAGACGAAGGAGCCGCAAAGAAGTTATTAATGGATGAATAATCCCCCAATATAAATATCTCTCACTTATTTAAA	0.122	0.0983	
CGACATGTCCCGCTTCTTTCATTAATCAGTTAGCAACTGTTTTGCTATATAAATTTACCTTTTAAGAGGAGGAAT			cleaved RNA product abundance [3]: 0.682
ACAGACGAAGGAGCCGCAAAGAAGTTATTAAGGAATGAATAATCCCTAAATATAAATATCTCTCACTTATTTAAA	0.147	0.152	
ACAGACGAAGGAGCCGCAAAGAAGTTATTAACGGATGAATAATCCCTCAATATAAATGTCTCTCACTTATTTAAA	0.0543		
ACAGACGAAGGAGCCGCAAAGTAGTTATTAAGGGATGAATAATACCTCAATATAAATATCTCTCACTTATTTAAA	0.176	0.155	
ACAGACGAAGGAGCCGCAAAGAAGTTATTAAGGGATGAATAGTCCCTCAAAATAAATATCTCTCACTTATTTAAA	0.31		
ACAGACGAAGGAGCCGCAAAGAAGTTATCAAGGGATGAAAAATCCCTCAATATAAATATCTCTCACTTATTTAAA	0.272		
ACAGACGAAGGAGCCGCAAAGAAGTTATTAAGGAATGAATAATCCCTCAATATAAATAGCTCTCACTTATTTAAA	0.095	0.108	
ACAGACGAAGGAGCCGCACAGAAGTTATTAAGGGATGAATAATCCCTCAATAAAAATATCTCTCACTTATTTAAA	0.116		
ACAGACGAAGGAGCCGCAAAGAAGTTATTAAGGGATGAATAATCCCTCAATATAAATATCTCTCGCTTATTTAAA	0.778		
ACAGACGAAGGAGCCGCAAAGAAGTTATTAACGGATGAATAATCCCACAATATAAATATCTCTCACTTATTTAAA	0.133		
CGACATGTCCCGCTTCTTTCATTATTCCGTTAGCAACTGTTTTGCTATATACATTGACCTTTTAAGAGGAGGAAT			cleaved RNA product abundance [3]: 1.55
ACAGACGAAGGAGCCGCAAAGCAGTTATTAAGGGATGAATAATCCCTCAATATATATATCTCTCACTTATTTAAA	0.687		
ACAGACGAAGGAGCCGCAAAGAAGTTATTAAGGGATGAATAATCCCTGAAGATAAATATCTCTCACTTATTTAAA	0.387		
CGACATGTCCCGCTTCTTTCATTATTCCGTTTGCAACTGTTTTGCTATATACATTTACCATTTAAGAGGAGGAAT			cleaved RNA product abundance [3]: 0.356
ACAGACGAAGGAGCCGCAAAGAAGTTATTAAGTCATGAATAATCCCTCAATATAAATATCTCTCACTTATTTAAA	0.106	0.0957	
ACAGACGAAGGAGCCGCAGATAAGTTATTAAGGGATGAATAATCCCTCAATATAAATATCTCTCACTTATTTAAA	0.636		
ACAGACGAAGGAGCCGCAAAGAAGTTATAAAAGGATGAATAATCCCTCAATATAAATATCTCTCACTTATTTAAA	0.165	0.153	

Sequence	cleaved RNA product abundance [1]	cleaved RNA product abundance [2]	also measured
ACAGACGAAGGAGCCGCAAAGAAGTTAATAAGGAATGAATAATCCCTCAATATAAATATCTCTCACTTATTTAAA	0.165	0.103	
ACAGACGAAGGAGCCGCAAATAAGTTATTAAGAGATGAATAATCCCTCAATATAAATATCTCTCACTTATTTAAA	0.13	0.12	
ACAGACGAAGGAGCCGCAAAGAAGTTATTAAGGGATGAATAACCCCTCAATATAAATATCTCTCACTTATTTAAA	0.609	0.56	cleaved RNA product abundance (experiment (reporter, strain, medium): exp 6: tetM reporter, strain 168, cleavage site: cggR-gapA (positions -7 to +36 mutated)): 0.408
ACAGACGAAGGAGCCGCAAAAAACTTATTAAGGGATGAATAATCCCTCAATATAAATATCTCTCACTTATTTAAA	0.479		
ACAGACGAAGGAGCCGCAATGAAGTTATTAAGGGAAGAATAATCCCTCAATATAAATATCTCTCACTTATTTAAA	0.702	0.389	
CGACATGTCCCGCTTCTTTCATTAATCCGTTAGCAACTATTTTGATATATACATTTACCTTTTAAGAGGAGGAAT			cleaved RNA product abundance [3]: 0.503
ACAGACGAAGGAGCCGCAAAGAAGTTATTAAGGGATGAATAATCCCTATATATAAATATCTCTCACTTATTTAAA	0.37		
ACAGACGAAGGAGCCGCAAAGAAGTTATTAAGGGATTATTAATCCCTCAATATAAATATCTCTCACTTATTTAAA	1.09	0.957	
ACAGACGAAGGAGCCGCAAATAAGTTATTAAGGTATGAATAATCCCTCAATATAAATATCTCTCACTTATTTAAA	0.139	0.169	
ACAGACGAAGGAGCCGCAAAGAAGTTATTACGTGATGAATAATCCCTCAATATAAATATCTCTCACTTATTTAAA	0.113	0.0928	
CGACATGTCCCGCTTCTTTCATTAATCATTTAGCAACTGTTTTGCTATATACATTTACCTTTTAAGAGGAGGAAT			cleaved RNA product abundance [3]: 0.249
ACAGACGAAGGAGCCGCAAAGAAGTTATTAACGGATGTATAATCCCTCAATATAAATATCTCTCACTTATTTAAA	0.147	0.124	
CGACATGTCCCGCTTCTTTCATTAATCCGTTAGCAATTGTTTTGCTATATAGATTTACCTTTTAAGAGGAGGAAT			cleaved RNA product abundance [3]: 1.51
ACAGACGAAGGAGCCGCAAAGAAGTTATTAAGGGATGCGTAATCCCTCAATATAAATATCTCTCACTTATTTAAA	0.629		
ACAGACGAAGGAGCCGCAAAGAAGATATTAAGGGAAGAATAATCCCTCAATATAAATATCTCTCACTTATTTAAA	1		
CGACATGTCCCGCTTCTTTCATTAATCCGTTAGCAACTGTTTTGCAATATACCTTTACCTTTTAAGAGGAGGAAT			cleaved RNA product abundance [3]: 0.29
ACAGACGAAGGAGCCGCAAAGAAGTTATTAAGGGATGAATAATCCCTGAATATAAACATCTCTCACTTATTTAAA	0.413		
ACAGACGAAGGAGCCGCAAAGAAGTTATTAAGGGATGAATAACCTCTCAATATAAATATCTCTCACTTATTTAAA	0.151		
CGACATGTCCCGCTTCTTTCATTAATGCGTTAGCAACTGTTTTACTATATACATTTACCTTTTAAGAGGAGGAAT			cleaved RNA product abundance [3]: 0.324
ACAGACGAAGGAGCCGCAAAGAAGTTATTAAGGGATGTATAATCCCTAAATATAAATATCTCTCACTTATTTAAA	0.748	0.551	

Sequence	cleaved RNA product abundance [1]	cleaved RNA product abundance [2]	also measured
CGACATGTCCCGCTTCTTTCATTAATCCTTTAGCAACTGTTTTGCTATATACATTAACCTTTTAAGAGGAGGAAT			cleaved RNA product abundance [3]: 0.846
ACAGACGAAGGAGCCGCACAGAAGTTATTAAGGGATTAATAATCACTCAATATAAATATCTCTCACTTATTTAAA	0.293		
CGACATGTCCCGCTTCTTTCATTAATCCGTTAGCAACCGTTATGCTATATACATTTACCTTTTAAGAGGAGGAAT			cleaved RNA product abundance [3]: 0.316
ACAGACGAAGGAGCCGCAAAGAAGTTATTAAGGGATGAATAATCCTTCAATATACATATCTCTCACTTATTTAAA	0.785	0.334	
ACAGACGAAGGAGCCGCAAAGAAGTTATTAAGGGATGAATAATCCATCAATAGAAATATCTCTCACTTATTTAAA	0.0602	0.0728	
CGACATGTCCCGCTTCTTTCATTAATCCGTTAGCAACTGTTTTGCTACATACATTAACCTTTTAAGAGGAGGAAT			cleaved RNA product abundance [3]: 0.434
CGACATGTCCCGCTTCTTTCATTAATCCGGTAGCAACTGTTATGCTATATACATTTACCTTTTAAGAGGAGGAAT			cleaved RNA product abundance [3]: 1.02
ACAGACGAAGGAGCCGCAAAGAAGTTATTAATGGATGAATAATCCCTCTATATAAATATCTCTCACTTATTTAAA	0.143		
ACAGACGAAGGAGCCGCAAAGAATTTATTAAGGGATGAATAATCCCTCATTATAAATATCTCTCACTTATTTAAA	0.377	0.278	
ACAGACGAAGGAGCCGCAAAGAAGTTATTAAGGGATGAATAATCACTCAATATTAATATCTCTCACTTATTTAAA	0.0358		
ACAGACGAAGGAGCCGCAAAGAGGTTATTAAGGTATGAATAATCCCTCAATATAAATATCTCTCACTTATTTAAA	0.1		
ACAGACGAAGGAGCCGCAAAAAAGTTATTAAGGGCTGAATAATCCCTCAATATAAATATCTCTCACTTATTTAAA	0.694	0.478	
ACAGACGAAGGAGCCGCAAAGAAGTTATTAAGGGATGAATAATACCCCAATATAAATATCTCTCACTTATTTAAA	0.149		
CGACATGTCCCGCTTCTTTCATTAATCCGTTAGCAACTGTTTTGATATATACATTAACCTTTTAAGAGGAGGAAT			cleaved RNA product abundance [3]: 0.832
CGACATGTCCCGCTTCTTTCATTAATCCCTTAGCAACTGTTTTCCTATATACATTTACCTTTTAAGAGGAGGAAT			cleaved RNA product abundance [3]: 0.214
ACAGACGAAGGAGCCGCAAAGAAGTTATTAATGGATGAATAATCCCTCCATATAAATATCTCTCACTTATTTAAA	0.12		
ACAGACGAAGGAGCCGCAAAGAAGTTATTAAGGGATGAATAATACCTCAATATAAACATCTCTCACTTATTTAAA	0.108		
ACAGACGAAGGAGCCGCAAAGAAGTTATTAAGGGATGAATACTCCCTTAATATAAATATCTCTCACTTATTTAAA	0.47		
CGACATGTCCCGCTTCTTTCATTAACCCGTTAGCAACTGTTTTGCTATATACATTTACCTTTTAAGAGGAGGAAT			cleaved RNA product abundance [3]: 0.819
